Source: publication PMC10159178 (PLOS ONE, 2023)

B1: 1D1 human monoclonal antibody against the RBD of SARS-CoV-2 (antibody, V domains shown)
VH: EVLLVESGGGLIQPGGSLRLSCAASGFTVSSNYMIWVRQAPGKGLEWVSLIYSGGSTFYADSVKGRFIISRDSSKNTLYLQMNSLRAEDTAVYYCAREPYGDKAWGQGTLVTVSS
VL: DIQMTQSPSSLSASVGDRVTITCQASQDINKYLNWYQQKPGKAPKPLISDTSNLQPGVPSRFSGSGAGTDFTLTISSLQPEDIATYYCQQYDNLPITFGQGTRLEIK
B2: 3D2 human monoclonal antibody against the RBD of SARS-CoV-2 (antibody, V domains shown)
VH: EVQLVQSGAEVKKPGDSLKISCKGSGYSFANYWIGWVRQKPGKGLEWMGIIYPGDSDTRYSPSSLGQVSISVDKSISTAYLQWSSLKASDTAMYYCARHPIHGYGSGSLYNPDYWGQGTLVTVSS
VL: QSVLTQPPSVSAAPGQKVTISCSGSNSNIGINYVSWYQQLPETAPKLLIYENNQRPSGIPDRFSGSKSGTSATLGITGLQTGDEADYYCGTWDTSLGAYVFGTGTKVTVL
notes: also called 3D2 mAb

Biological target: wild-type SARS-CoV-2 RBD-His protein (SARS-CoV-2, wild-type, UniProt P0DTC2)
Experiment: SPR
Conditions: both partners purified

Binder	Kd [nM]	koff [s⁻¹]	kon [M⁻¹ s⁻¹]	t1/2 [min]
B1	0.242	0.00015	620000	–
B2	0.789	0.000268	339000	43.1
